Positions count from the first letter of the chain named.
B1: M132 (VHH)
VHH: QVQLVESGGGLVQAGGSLSLSCVASGDAFSFDAMGWYRQFSGKVNERQLVVATSRDGRTAYGERVKGRFTASRDNSKNTLSLVMNNLQVEDTAIYYCAAGDDPKDYYWGQGTQVTVSS
notes: Nanoantibody in TG1 supernatant in the screening ELISA; also called clone M132
B2: M012 (VHH)
VHH: QVQLVESGGDLVQTGGSLRLSCVVSGSTFAINAMGWYRQAPGKERELVAAISSGGDSTHYADDVKGRFTISRDNAENTMYLQMKSLKPEDTAVYVCNARGCRDFHNPQALCVLRDYWGQGTQVTVSS
notes: Nanoantibody in TG1 supernatant in the screening ELISA; also called clone M012
B3: M005 (VHH)
VHH: EVQLVESGGGWVQSGGSLRLACAASGSSFGLNVVGWYRQAPDKQRELVASIGNGGRTTDYADSVKGRFTISSDNAKNTVFLQMNDLKPEDTAVYYCHLRASVTKGYWGQGTQVTVSS
notes: Nanoantibody in TG1 supernatant in the screening ELISA; also called clone M005
B4: M126 (VHH)
VHH: B3 VHH with S27D, Q39L, V93M, A100V, K104E
notes: Nanoantibody in TG1 supernatant in the screening ELISA; also called clone M126
B5: M044 (VHH)
VHH: QVQVVESGGGFVQAGGSLRLSCAASTPIISIAYMGWYRQISEKERQLVATINSGGKTYYADSVKGRFTISRDNAKNTLYLQMNMLKPEDTGMYYCAASNKDYNDYDPDWGQGTQVTVSS
notes: Nanoantibody in TG1 supernatant in the screening ELISA; also called clone M044; M044 antibody
B6: M010 (VHH)
VHH: QVQLVESGGGLVQAGGSLRLSCAASGSVSSINAMGWYRQGTGEVRKLVATMGSGGNTYYADSVKGRFFITRDYSKNTVSLQMNNLTPEDSATYYCAADRFGASIHEVDYWGKGTLVTVSS
notes: Nanoantibody in TG1 supernatant in the screening ELISA; also called clone M010
B7: M050 (VHH)
VHH: EVQLQESGGGLVQAGGSLRLSCAASGAVSSINAMGWYRQTPEKVRKLVATMGSGGNTYYADSVKGRFTISRDYAKNTVALQMNNLIPEDTAVYYCAADKFGADIHEVDYWGKGTLVTVSS
notes: Nanoantibody in TG1 supernatant in the screening ELISA; also called clone M050
B8: M182 (VHH)
VHH: QVQLVESGGGSVQAGGSLTLSCAASGAVSSINAMGWYRQTPEKVRQLVATMGSGGNTYYAASVKGRFTISRDYAKNTVALQMNHLLPEDTAVYYCAADRFGADIREVDYWGKGTQVTVSS
notes: Nanoantibody in TG1 supernatant in the screening ELISA; also called clone M182
B9: M032 (VHH)
VHH: EVQLVESGGGSVQAGGSLKISCAASGSVIDIGAMGWYRHITEKERKLVATINAGGNTYYADSVKGRFTISRDNAKYTVYLQMNSLKPEDTAMYYCAAEDINYTGTEAYYWGQGTQVTVSS
notes: Nanoantibody in TG1 supernatant in the screening ELISA; also called clone M032
B10: M001 (VHH)
VHH: EVQLVESGGGLVQAGGSLRLSCAASGSIFNINAMGWYRQAPGKEWERELVATISSSNSDNTYYKDSVKGRFTISTNTAKNTWYLQMNSLKPEDTAMYYCAAENYDRKDRYWGQGTQVTVSS
notes: Nanoantibody in TG1 supernatant in the screening ELISA; also called clone M001
B11: M003 (VHH)
VHH: B10 VHH with E1Q, A23T, S27N, N30S, A40P, S56T, D65E, Y104F, G112A
notes: Nanoantibody in TG1 supernatant in the screening ELISA; also called clone M003
B12: M118 (VHH)
VHH: EVQLVESGGGLVQAGGSLTLSCAASEHTFTIDAMGYYRQIPGRRNERQLVAAAGRTGTTYYNDAVKDRFTIYRDTSKETIILQMNNLRPEDTTMYYCAVERYSDQSRFFGPGTQVTVSS
notes: Nanoantibody in TG1 supernatant in the screening ELISA; also called clone M118
B13: M129 (VHH)
VHH: QVQLVESGGGSAQAGGSLILSCVASANLFTIDALGWYRQAPGPKRELVAAISSGGNKYYADAVKGRFTISRDTLTKTMWLQMNNLKPEDTAMYYCAAEDYGLGQRSWGMGTQVTVSS
notes: Nanoantibody in TG1 supernatant in the screening ELISA; also called clone M129
B14: M119 (VHH)
VHH: EVQLVESGGGLVQPGGSLRLSCVASGSDLSFDAMGWYRQFSATVRERQLVVATSRDGRIYYGDSVKGRFTASRDNLKNSVDLEMNNLKPEDTAIYYCAAGDDPKNYDWGPGTQVTVSS
notes: Nanoantibody in TG1 supernatant in the screening ELISA; also called clone M119
B15: M047 (VHH)
VHH: QVQLVETGGGSVQAGGSLRLSCAASGSIASIDAMGWYRQVPGKEWERELVATISSSNSDNKYYKDSVKGRFTISTNIAKNTWYLQMNNLKPEDTAMYYCAAEDYDTKDRFWGQGTQVTVSS
notes: Nanoantibody in TG1 supernatant in the screening ELISA; also called clone M047
B16: M2339-z11-1 (antibody, IgG4, V domains shown)
VH: EVQLVASGGGLVQPGGSLRLSCALSGFTLRELDEFAIGWFRQAPGKEREGVSCISGTGGITHYADSVKGRFTISRDNSKTTVYLQMNSLRAEDTAVYYCAADERCTDRLIRPPTYWGQGTQVTVSS
notes: Humanized variant of M2339
B17: M2339-z11-6 (antibody, IgG4, V domains shown)
VH: B16 VH with A91S
notes: Humanized variant of M2339
B18: M2339-z11-12 (antibody, IgG4, V domains shown)
VH: B16 VH with V5G, N77I, S78A, R90N, A91S
notes: Humanized variant of M2339
B19: M2339-z11-3 (antibody, IgG4, V domains shown)
VH: B16 VH with V2L
notes: Humanized variant of M2339
B20: M2339-z11-5 (antibody, IgG4, V domains shown)
VH: B16 VH with R90N
notes: Humanized variant of M2339
B21: M2339-z11-2 (antibody, IgG4, V domains shown)
VH: B16 VH with E1Q
notes: Humanized variant of M2339
B22: M2339-z11-4 (antibody, IgG4, V domains shown)
VH: B16 VH with V5G
notes: Humanized variant of M2339
B23: M2339-z11-15 (antibody, IgG4, V domains shown)
VH: B16 VH with E1Q, V2L, V5G, N77I, S78A, V82L, R90N, A91S
notes: Humanized variant of M2339
B24: M2339-z11-16 (antibody, IgG4, V domains shown)
VH: B16 VH with E1Q, V2L, V5G, N77I, S78A
notes: Humanized variant of M2339
B25: M2339-z11-7 (antibody, IgG4, V domains shown)
VH: B16 VH with V2L, V5G
notes: Humanized variant of M2339
B26: M2339-z11-14 (antibody, IgG4, V domains shown)
VH: B16 VH with E1Q, V2L, V5G, N77I, S78A, T80N, R90N, A91S
notes: Humanized variant of M2339
B27: M2339-z11-10 (antibody, IgG4, V domains shown)
VH: B16 VH with E1Q, V2L, A6E, N77I, S78A, R90N, A91S
notes: Humanized variant of M2339
B28: M2339-z11-11 (antibody, IgG4, V domains shown)
VH: B16 VH with E1Q, V2L, V5G, L24A, N77I, S78A, R90N, A91S
notes: Humanized variant of M2339
B29: M2339-z11-17 (antibody, IgG4, V domains shown)
VH: B16 VH with V2L, V5G, T80N, V82L
notes: Humanized variant of M2339
B30: M2339-z11-9 (antibody, IgG4, V domains shown)
VH: B16 VH with E1Q, V2L, N77I, S78A, R90N, A91S
notes: Humanized variant of M2339
B31: M2339-z11-8 (antibody, IgG4, V domains shown)
VH: B16 VH with E1Q, V2L, V5G, A6E, N77I, S78A, R90N, A91S
notes: Humanized variant of M2339
B32: M2339-z11-13 (antibody, IgG4, V domains shown)
VH: B16 VH with E1Q, V2L, V5G, R90N, A91S
notes: Humanized variant of M2339

Target: T1, MD50 protein
T1 construct: range 487-580; also called proximal membrane fragment of mesothelin
T1 sequence (Q13421 495-588): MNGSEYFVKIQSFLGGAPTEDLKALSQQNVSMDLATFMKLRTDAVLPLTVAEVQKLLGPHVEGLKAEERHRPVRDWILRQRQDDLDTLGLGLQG
Assay: ELISA, antigen coated, TG1 supernatant

Binder | ELISA (OD450)
B1 | 1.17
B2 | 2.05
B3 | 1.03
B4 | 0.926
B5 | 2.04
B6 | 2.09
B7 | 0.512
B8 | 1.14
B9 | 1.72
B10 | 1.35
B11 | 1.73
B12 | 2.06
B13 | 1.66
B14 | 1.46
B15 | 2.07

Target: T2, MSLN.Fc protein (human, UniProt Q13421 296-598, limits assumed)
T2 construct: also called MSLN·hFc; MSLN protein; not shown: human IgG Fc fragment
T2 sequence (Q13421 other isoform, or with tags, fused parts or gaps limits assumed): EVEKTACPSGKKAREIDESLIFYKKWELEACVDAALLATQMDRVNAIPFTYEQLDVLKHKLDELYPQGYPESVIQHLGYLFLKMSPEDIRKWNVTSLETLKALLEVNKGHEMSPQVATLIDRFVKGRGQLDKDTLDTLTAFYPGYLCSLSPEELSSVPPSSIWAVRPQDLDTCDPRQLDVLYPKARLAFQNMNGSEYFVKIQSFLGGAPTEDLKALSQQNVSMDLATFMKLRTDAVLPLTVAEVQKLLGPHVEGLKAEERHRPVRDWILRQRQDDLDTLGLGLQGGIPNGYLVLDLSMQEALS
Assay: ELISA, antigen coated, TG1 supernatant

Binder | ELISA (OD450)
B1 | 1.34
B2 | 0.938
B3 | 1.18
B4 | 1.95
B5 | 2.2
B6 | 2.75
B7 | 2.72
B8 | 1.03
B9 | 1.41
B10 | 1.72
B11 | 2.38
B12 | 2.05
B13 | 2.4
B14 | 2.49
B15 | 1.98

Target: T3, MSLN·His protein (human, UniProt Q13421 296-580, limits assumed)
T3 construct: Bought protein; also called human MSLN·His antigen; not shown: His tag
T3 sequence (Q13421 other isoform, or with tags, fused parts or gaps limits assumed): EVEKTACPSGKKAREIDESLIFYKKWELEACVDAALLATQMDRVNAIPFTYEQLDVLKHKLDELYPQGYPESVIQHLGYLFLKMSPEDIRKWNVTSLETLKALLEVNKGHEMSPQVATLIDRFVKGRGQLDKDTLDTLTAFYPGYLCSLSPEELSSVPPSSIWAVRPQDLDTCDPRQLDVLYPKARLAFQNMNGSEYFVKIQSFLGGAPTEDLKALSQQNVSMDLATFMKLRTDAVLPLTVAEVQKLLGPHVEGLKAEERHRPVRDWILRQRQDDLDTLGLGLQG
Assay: SPR (Biacore), antibody captured on protein A, MSLN·His as analyte
From the text: Referring to the method of humanizing nanoantibodies (J. Biol. Chem. 2009; 284: 3273-3284), M2339 was humanized using the method of CDR region transplantation. In IgBLAST (http://www.ncbi.nlm.nih.gov/igblast/), germline with high homology with M2339 was selected as the template in the database. Biacore was used to detect the affinity of the antibody before and after humanization. The purified antibody was flowed through the sensor chip pre-fixed with protein A, and the antibody was captured by protein A. Then five different concentrations of MSLN·His protein were used as the mobile phase, and the association time and dissociation time were 30 min and 60 min, respectively. The binding rate (ka), dissociation rate (kd), and equilibrium constant (kd) were analyzed using Biacore Evaluation Software 2.0 (GE).

Binder | Kd [nM] | koff [s⁻¹] | kon [M⁻¹ s⁻¹]
B16 | 59.5 | 0.00608 | 102000
B17 | 47.4 | 0.00824 | 174000
B18 | 12.2 | 0.00102 | 83800
B19 | 2.78 | 0.000132 | 47400
B20 | 37.7 | 0.00878 | 233000
B21 | 0.279 | 1.74e-05 | 62300
B22 | 14.9 | 0.00119 | 80000
B23 | 0.16 | 1.14e-05 | 71000
B24 | 0.0961 | 6.52e-06 | 67800
B25 | 1.3 | 5.18e-05 | 39800
B26 | 0.228 | 1.01e-05 | 44400
B27 | 0.239 | 9.81e-06 | 41000
B28 | 0.274 | 1.18e-05 | 43000
B29 | 3.98 | 0.000156 | 39300
B30 | 0.143 | 1.2e-05 | 83800
B31 | 0.361 | 1.6e-05 | 44300
B32 | 0.142 | 9.29e-06 | 65200

— patent publication US20240190986A1 (ZHEJIANG NANOMAB TECHNOLOGY CENTER, published 2024)
